Laboratory results: patent US20240024504A1, “SITE-SELECTIVE LYSINE ACETYLATION OF HUMAN IMMUNOGLOBULIN G AND IgG-RELATED PRODUCTS FOR IMMUNOTHERAPY” (The Chinese University of Hong Kong, priority 2022, published 2024)

Biological target: Atezolizumab
Experiment: microscale thermophoresis instrument, ligand-induced fluorescence change; f-F0 held at 10 nM, the concentration axis is that of atezolizumab

- EC50 (read off the curve): 20 nM
Substance: peptide f-F0 (FITC-labeled parental Fc-III peptide F0, disulfide bond replaced by a thioether bond)
